Measurements published in patent US20220185881A1 (JIANGSU HENGRUI MEDICINE, published 2022).

B1: h1901-11 (antibody, human IgG1, kappa, V domains shown)
VH: EVQLVESGGGLVQPGGSLRLSCAASGFTFSDYGIHWVRQAPGKGLEWIAYISRGSSTIYYADTVKGRFTISRDNAKNSLYLQMTSLRAEDTAVYYCARGGYDTRNAMDYWGQGTTVTVSS
VL: DIVMTQSPDSLAVSLGERATISCKSSQSLLNSGNQKNYLAWYQQKPGQPPKLLIYGASTRASGVPDRFSGSGSGTDFTLTISSLQAEDVAIYHCQNDLYYPLTFGQGTKLEIKR
B2: IMAB-362 (antibody, human IgG1, kappa, V domains shown)
VH: QVQLQQPGAELVRPGASVKLSCKASGYTFTSYWINWVKQRPGQGLEWIGNIYPSDSYTNYNQKFKDKATLTVDKSSSTAYMQLSSPTSEDSAVYYCTRSWRGNSFDYWGQGTTLTVSS
VL: DIVMTQSPSSLTVTAGEKVTMSCKSSQSLLNSGNQKNYLTWYQQKPGQPPKLLIYWASTRESGVPDRFTGSGSGTDFTLTISSVQAEDLAVYYCQNDYSYPFTFGSGTKLEIKR

Target: human Claudin 18.2 (human)
Assay: cell-based or functional assay

Binder	IC50 (ng/ml), ADCC effect (FcrR3A-V158-NFAT-RE-Jurkat effector cells, Bright-Glo), NUGC4 cells with high expression of Claudin 18.2 [ng/mL]	IC50 (ng/ml), ADCC effect (FcrR3A-V158-NFAT-RE-Jurkat effector cells, Bright-Glo), NUGC4 cells with low expression of Claudin 18.2 [ng/mL]	IC50 (ng/ml), ADCC effect (FcrR3A-V158-NFAT-RE-Jurkat effector cells, Bright-Glo), NUGC4 cells with medium expression of Claudin 18.2 [ng/mL]
B1	26.2	22.4	15.3
B2	133	183	210
